T1: PAUF-His protein (UniProt Q96DA0 17-172, limits assumed)
T1 construct: not shown: His tag
T1 sequence (looked up): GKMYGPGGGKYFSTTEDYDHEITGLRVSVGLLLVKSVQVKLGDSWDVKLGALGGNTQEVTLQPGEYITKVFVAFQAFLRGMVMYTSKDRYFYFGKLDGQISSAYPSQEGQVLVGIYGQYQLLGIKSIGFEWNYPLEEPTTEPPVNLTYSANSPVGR

T2: pancreatic adenocarcinoma upregulated factor (PAUF) protein (UniProt Q96DA0 17-172, limits assumed)
T2 construct: no tag is mentioned there; also called Antigen PAUF
T2 sequence (looked up): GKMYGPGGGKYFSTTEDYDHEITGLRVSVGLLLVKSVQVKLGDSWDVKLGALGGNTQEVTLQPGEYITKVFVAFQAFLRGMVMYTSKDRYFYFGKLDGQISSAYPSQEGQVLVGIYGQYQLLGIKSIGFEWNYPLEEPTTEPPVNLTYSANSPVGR


Legend:
PAUF-His protein = molecular target: T1, PAUF-His protein; experiment: indirect ELISA titration on PAUF-His, anti-human Fc-HRP; column head Kd (10^-9 M)
Method: Specifically, indirect ELISA was performed. An immuno-plate was coated with the PAUF-His protein and treated with each antibody at different concentrations, and the results were analyzed using the anti-human Fc-HRP capable of recognizing the constant region of human antibody as the secondary antibody. In particular, as the concentration of each antibody increases, the OD value increases.

[1] = molecular target: T2, pancreatic adenocarcinoma upregulated …; experiment: indirect ELISA, PAUF-coated plate, HRP-labeled anti-mouse antibody
Method: Specifically, the affinity of the antigen-antibody was tested using indirect ELISA. The PAUF-coated immuno-plate was treated with the four kinds of antibodies (2H2, 4E6, 11 G6, and 20C5) at different concentrations and the OD values were measured using the HRP-labeled anti-mouse antibody. In particular, as the OD value becomes higher, the affinity of the antibody for the PAUF becomes higher. Additionally, for the measurement of the nonspecific binding of an anti-PAUF mouse monoclonal antibody, which has a high affinity for PAUF, to other antigenic proteins, the immuno-plate was coated with PAUF and unspecified antigens so as to perform indirect ELISA.

[2] = molecular target: T2, pancreatic adenocarcinoma upregulated …; experiment: SPR, PAUF immobilized, antibody in flow at different concentrations
Method: Specifically, the antigen-antibody binding affinity was measured using the SPR method. Antigen PAUF was immobilized on the surface of a thin metal film and the antibody was diluted at different concentrations and allowed to pass through the metal surface. The antigen-antibody binding affinity was measured by measuring the time required for binding and dissociation between antigens and antibodies.

Row | Binder | Kd (PAUF-His protein) | EC50 (read off the curve) [1] | also measured
1 | cPMAb205 (chimeric antibody of 20C5) (antibody, V domains shown, Mouse variable regions of 20C5 on human heavy and light chain constant regions (kappa light chain implied by the anti-human kappa secondary antibody); Expressed in HEK293 cells) VH: QVQLKESGAELVRPGALVKLSCKASGFNIKDYYMHWVKQRPEQGLEWIGWIDPEHGNTIYDPKFQGKASLTADTSSNTAYLQLSSLTSEDTAVYYCARRGWLPAWFAYWGQGTLVTVSA VL: DIVMTQSPSSLAVSAGEKVTLSCKSSQSLLNSRTRKNYLAWYQQKPGQSPKLLIYWASTRESGVPDRFTGSGSGTDFTLTISSVQAEDLAVYYCKQSYNLYTFGGGTKLEIK | 0.03 nM |  | 
2 | 20C5 (anti-PAUF protein mouse antibody) (antibody, V domains shown, Mouse monoclonal antibody) VH: QVQLKESGAELVRPGALVKLSCKASGFNIKDYYMHWVKQRPEQGLEWIGWIDPEHGNTIYDPKFQGKASLTADTSSNTAYLQLSSLTSEDTAVYYCARRGWLPAWFAYWGQGTLVTVSA VL: DIVMTQSPSSLAVSAGEKVTLSCKSSQSLLNSRTRKNYLAWYQQKPGQSPKLLIYWASTRESGVPDRFTGSGSGTDFTLTISSVQAEDLAVYYCKQSYNLYTFGGGTKLEIK |  | ~0.02 µg/mL | 
3 | hPMAb22 (anti-PAUF protein humanized antibody) (antibody, V domains shown, CDR-grafted humanized antibody with human constant regions; Expressed in HEK293 cells; also called 2H2-VH1/VL1; 2H2-VH1-VL1) VH: QVQLVQSGAEVKKPGASVKVSCKASGFNIKDYYMHWVRQAPGQGLEWMGWIDPENGNTNYAQKFQGRVTMTRDTSISTAYMELSRLRSDDTAVYYCARRAITTATAWFAYWGQGTLVTVSS VL: DIVMTQSPDSLAVSLGERATINCKSSQSLLNSRTRKNYLAWYQQKPGQPPKLLIYWASTRESGVPDRFSGSGSGTDFTLTISSLQAEDVAVYYCKQSYNLYTFGQGTKVEIK |  |  | Kd [2]: 0.194 nM

The next lines start with results.

Row | Kd (PAUF-His protein) | EC50 (read off the curve) [1] | Binder | also measured
4 | 0.01 nM |  | cPMAb22 (chimeric antibody of 2H2) (antibody, V domains shown, Mouse variable regions of 2H2 on human heavy and light chain constant regions (kappa light chain implied by the anti-human kappa secondary antibody); Expressed in HEK293 cells) VH: QVQLKQSGAELVRPGALVKLSCKASGFNIKDYYMHWVKQRPEQGLEWIGWIDPENGNTIYDPKFQGKASITADTSSNTAYLQLSSLTSEDTAVYYCARRAITTATAWFAYWGQGTLVTVSA VL: DIVMTQSPSSLAVSAGEKVTMSCKSSQSLLNSRTRKNYLAWYQQKPGQSPKLLIYWASTRESGVPDRFTGSGSGTDFTLTISSVQAEDLAVYYCKQSYNLYTFGAGTKLELK | 
5 |  | ~0.05 µg/mL | 2H2 (anti-PAUF protein mouse antibody) (antibody, V domains shown, Mouse monoclonal antibody; also called 21-12 [sic]) VH: QVQLKQSGAELVRPGALVKLSCKASGFNIKDYYMHWVKQRPEQGLEWIGWIDPENGNTIYDPKFQGKASITADTSSNTAYLQLSSLTSEDTAVYYCARRAITTATAWFAYWGQGTLVTVSA VL: DIVMTQSPSSLAVSAGEKVTMSCKSSQSLLNSRTRKNYLAWYQQKPGQSPKLLIYWASTRESGVPDRFTGSGSGTDFTLTISSVQAEDLAVYYCKQSYNLYTFGAGTKLELK | 

Reference: patent publication US20200055951A1 (DONG A UNIVERSITY RESEARCH FOUNDATION FOR INDUSTRY ACADEMY …, published 2020)
